In the DeepSol protein solubility set:

test: soluble on expression in E. coli; label from the status in PepcDB or PDB records

Soluble on expression in E. coli, not soluble:
MGSDKIHHHHHHMKRACVIGAGFGGLALAIRLQSGGVQTTLIEARDKPGGRAYFWEKDGFTFDGGPTVITDPACLEELWALKGHRMADDVELMPVMPFYRLNWADGTNFDYSNDDASLRAEIAKLEPADVAGYDDFLRYSAGVFEEGYVKLGAVPFLDFASMIKAAPALARYQAWRSVYSMVSSFVRNEKLREAFSFHTLLVGGNPMTTSAIYALIHKLEKDGGVWWAKGGTNRLIEGMVTHFRRIGGEVRIGDPVTRVETLGTRVTGVETRSGWSGKFDAVASNADVMHSYRDLLSDNSHAKRRAKSLGKKRFSPSLFVVHFGIEGTWPGIPHHMILFGPRYKGLLDDIYTHGVLPQDFSIYLHHPTVTDPSVAPEGMSTFYALVPVANMGKLPVNWDEVGPILEKRILDEVGRRLIPDIHTRIVTKFHYAPSDFSTDLSAHLGSAFSLEPLLTQSAWFRAHNRDDAISNFYLVGAGTHPGAGIPGVVGSAKATARLMLEDLS, MGSDKIHHHHHHMKRAVGDLIEETMDIVLANPRGFCAGVDRAIIIVEQALEKFGAPIYVRHEVVHNKFVVDDLKKKGAIFVEELDEVPAGNTVIFSAHGVSKDVRAEAEARGLQVFDATCPLVTKVHLEVAKMRASGKEIIMIGHKGHPEVEGTMGQAEGGMYLVESPEDVAMLEVKDPSQLAYVTQTTLSIDDAAAIVSALKAKFPEITPPRSDSICYATQNRQDAVKVMARDCDLVIVVGSPNSSNSNRLREVAQNQGVESYMVDNASFLDPAWIVGKKRIGVSAGASAPEVLVQEVINKLRALGAADVQELNGVVENVVFKIPRNLAEA, MGSDKIHHHHHHMKRQRLAIIDIGSNSIRLVINTINEHGHYQELYNFKTVARLSNHLDAQGNLTKEGTSILLTTLQKFRTLTEDHHCDRAIVVATAAMRKANNRKELLKLAEQETGFSIKLLSEYEEAYFGYLAIVNSTSIQDGITIDIGGGSTEITRFSNRKLLHYHSFPFGAITLYRDFFHSTDPSEEELASLQTFLESAFATLPWLQDAKDLPVIGIGGTARNLSLIHQRQTDYPLAGLHQYSFPAEELHSVTQMLQRLTSSEREGLDGLSKDRVDVIIPGTQAISSLVKTIGSSQFIMSRKGLRDGLFYSEILEQLNLECFPNVVEESFYQLYHQYEINLEHVKQVAKLATKLYEQLAPFYNGKLEHQQNLTLIHRAARVLYLGEHINPEASSQHTFYLLTNMSIDGLNHEERLALACVSSFKSKAQLLHMASPFMPLISKKQLKRFEFLGAILKLAYCLNRTRRHVIGKIGTIEAKRDALVLPLYYHYDLDPSFEQDYALKHVKHVEKVIKKTIELPFLPLSNFT, MGSDKIHHHHHHMKRVIINADDFGLSDGVNRAVIKAWQEGILTSASLMVGGDAFHEAVHLAKANPGLHVGLHLTLVQGRAVGEHGGFPSICDSKGAFSDDPVQTGMRYFFIRSFRKQLYREIEAQIVRFLQTGLPLSHVDGHLNIHMHPVVFDLLCGLMRKHGITTFRLCRENLRANLTLDRERRFGKMVDAFIFSKLAGRCRPILDHLGIGYAQEVKGLLNSGRMTEEYLLRVLDTLEDGTTELYFHPGCLPCAEITRRMPDYRHEEELAALMSPRVKGRLKELGIELGNYRGEVKTYV, MGSDKIHHHHHHMKSMWCIHDRIFLKKTREVFDVDIKAYKERVEKAVEYLKGQIDETPEIAIILGSGLSVIADEVEKEGTSKKIPYSEIPGFPISTAPGHKGELIFGKLFGKNVMLMNGRFHYYEGYSMKEVTFPIRVMQLLGVEILIVTNAAGGLNPDFEVGRPMIITDHINFMGDNPLIGPNVDEWGPRFPDMSEPYDKELIELAYNSARELGIPVYQGVYVAVTGPCFETPAELRMLRKFGADAVGMSTVPEVIVARHGQIRVLGISAITDRAVPEDLKPLTAEEVLEVAEKTGRKIAQIIFEVVRKL, MGSDKIHHHHHHMKSPQELRNKLFRYWRQPGLRLRQLLDQAAWPLVLSIGKPTAQVFSSQVAMVQKHVEAWREVSVGKVEWKRIGYRSGADLVSIPTQWCLRSPTEWITAMSNEEISAQYMSLEHLVEHLPAVYRRLIITRPSLWKNKRSEEVIQVAGLAQRLSPGCAQGLPLRLLSGYGVDTKFFERNELLLSKMLDVRYEGEASRQGLCDFLDAYDDTSHWVLLAPLEAGLLPFKRQLVTTSELGRASLPGTRLLIVENQKCLHLLRELPGTIAILGCGSDLAWLGSAQLHGKSIAYWGDVDTWGMRMLARARSRFNAVIPLLMTATVFDAHSDFTVPEPIRAQDTPPADLTPSETALFKRLVQCSRGRLEQEFISREVVWAALEEWIQRRRG, MGSDKIHHHHHHMKTIKGPAIFLAQFMSDVAPFNNLKNICDWAASLGYKGVQIPSWDVRCIDLQKAAESKTYCDEIKAVVHAAGLEITELTSHLQGQLVASHAAYDAAFDVFAPAAIHNNPKARAEWATQQLMYAAKASQNLGLTAHATFSGALLWHTMYPWPQRKAGSVEEGFTELAKRWLPILNAFDQAGVDLCYEIHPGEDLHDGITFERFLKATDNHSRAHILYDPSHFVLQQLNYLDYIDIYHEHIKMFHVKDAEFNPSGRAGVYGGYQDWIDRPGRFRSLGDGQVNFKAIFSKLTQYDFPGWAVLEWECCLKHPEDGAREGAAFIKNHIIRVADKAFDDFAG, MGSDKIHHHHHHMKTKLILVGGFLGVGKTTLLGEAARRLSQTGRKVGLITNDQASELVDTVYLEQTGTEVSEVSGSCFCCNFPGFMEAIDHVNAHKPADIIIAEPVGSCTDLSATILQPLKEKFADKLSVAPLSVLVDPRQLTDILDGRTAGLHPSAAYILRKQLEEADLIVINKTDLLTPLAVEILKKRTAEEWPLASVYAISAKTGEGLAAWLHEAQQRSGAGTHLAEVDYDTYAEGEAVLGWLNATIELQSQGADWDTLGRNLLNSLRSRFGSLNAAIGHVKLLIATDQGYVIGNITGAKDSLDIRESAGTGRKAQLTLNARVQMEPDLLEEIVKEEIAKVQADKITATIAVLKCLKPGRPNPTYRYGTIVG, MGSDKIHHHHHHMKTMRKILEIDEERCNGCGLCVLDCAEGAIAIVDGKAKIVSDSFCDGLGACIGSCPQDALHIIEREAVPFDEEAAMEHVRSQGGTPEANHGHGHGAGTPHRHGQSAEHGGHGRIPGHGGCPGAAMRRFDSAESPAFAVAEGTVKGPGHWPLKIRLVPPTAPFLKGADVLVAADCAAAASPIFHSHFAAGKVVLIGCPKFDDTEAYAERLADILRVSGIASLTVLRMEVPCCRGLSAAAEKARVLSGTSLVLKEVIMTCAGGPAAPAPLSSL, MGSDKIHHHHHHMKTYMISLHGAYENENFGDELLIAIQAKWINDEGYDVCLPFASKVYREQIPSLDKEGSRGLEESEKLIYTGGGYFGEPNHKTFKWGINFFRKKHHIPAKIFKKNNKKYLICGVGAGPITNPITRYTVVKICNFAEKVVVRDTTSYDYLIKYGVIPEKIQVGADVVLSLTIHDLPKGSIEKAKKTLNKDNKNFYLGIHIGVSPDDENYKTNVKAAMESLANVIKRNSVVPVLIADKRNATSTQEKAIEYMSSLLDEEPIVYRHSNIWETCAFLSSLDGVVTTKLHVGITAYTLGTRTFGIAAHQKTRRFYNQIKKENYFYELKEVDNGIESSLELFIKDRYWDEETLQAKKELNERALLCKREMLQFLES, MGSDKIHHHHHHMKTYTSNHIVFFSPTHTSAKIARAIGESIGMGRRIEIDLTTDENSSPIEIKDSITIIAVPVYAGRVAPIALQRLRRLKGNNAPAILVAVYGNRDYEDALVELRDETIQLGFTPLAAGAFIGEHSYSRPNMPIAEGRPDVTDLQIAEQFGKDCLTKLEKDETLSDFYLKGNIPYRFVGPSTPAAPVCTEECFACGECIEVCPTHAIALSDEGKIETEITKCIKCCACVKECPNGARVFDTPYTPMLHQKCAARREPELFI, MGSDKIHHHHHHMKVGVALSGGVDSAVALYLLLKEGHEVKAFHMKTKEDEFFIKKEIKKKVCCSPSDTADAMRIAHFLGVEIEIVDVKEIFREKVIEPFKRDLLKGLTPNPCAHCNRFVKFGYLMDYVLNQGFDAFASGHYARIEFSEKYGRKVIKKGVDLKKDQSYFLARIEPWRIERLIFPNGIYTKEEIRKIAEEAGIHVAKKQESQDVCFIPDGSIENFLKDEGITLKDGDIITPEGEVVGRHFGYPLYTIGQRKGFKIEKFGRRYYVRGKIPEKNVVVVSDLEDVFFSGLIAEDPVWHVEVPEEFRCVCRVRKKSEEAPAVVKVKDNEVEVSFEKKVFAVTPGQIAAFYDGDTLLGGAIIKEGIR, MGSDKIHHHHHHMKVLELKNVSVRYKTGEKTVNAVENVSFHLEKGETLGLVGESGCGKSTLGFSIMRLLPKGTKIDGSIKIEGIDISSLSDEEMRQIRGSKVAMIFQDPMTSLNPILRIEDHFVEMILTHRPELSKEDARELAAKALEDVGINRNRLKDYPFQFSGGMRQRVMIALSIVLNPAVLIADEPTTSLDVIVQAQIMELLEKLTKEHRTAMILITHDMGLVAEAADRIGVMYAGHLVELASKERIFTNPLHPYTVGLLRSIPNTDVNDKELRYIPGSPPDLSNPPEGCRFAPRCEKAMKICWEKEPPEFEIDGTRVKCWLYGGDQNGTD, MGSDKIHHHHHHMKVLHVNAGLENGGGLSHIVNLLTEAKRENKDFDLLTLADGPVAAAAREHGINTYVLGAKSRYNLASLKKLIKFINDGHYDIVHTHGARANLFLSLIHKRISAVWCVTVHSNPYLDFEGRGFLGKVFTKFNLRALKKADCIFAVTKRFANLLVNQTQLDKNKVHVIYNGIFFHNDSEIPAKYEHTYFNVINVARTEKVKGQELLLKAVKKLNDQHIRLHIAGDGSQLEPLKALTRQLNMAPQVTFHGFMTHHQLSGLYKRIDLAVLTSYSESFPLVLLEATDNLIPILSTDVGDIHKMIPGPKYGFIAKTGDIDSIAKQLELAVNKTTKQLREMAYTEKRYAEEHFSVKNQLADIEKVYSTLI, MGSDKIHHHHHHMKVLIVGGSGGIGQAMVKQVQETYPDATVHATYRHHLPNDRQNNIQWHALDVTNEAEIKQLSEQLTELDWLINCVGILHTQDKGPEKSLQSLDIDFFQHNLTLNTLPSVMLAKHFCHALKQSDSARFAVISAKVGSITDNRLGGWYSYRASKAALNMFLKTLAIEWQRNMKHCVVLSLHPGTTDTPLSQPFQQSVPKGKLFTPEYVANCLLPIIANATPAQTGCFFAYDGTELPW, MGSDKIHHHHHHMKVLLINGSPNQYGCTYTALNEITKVLSKHDIKTEILYLGKETIPGCISCASCFETGKCIRNDKVNELIEDLDNIDGIIIGSPVYFSSATGQLTSFLDRLFFIAGSRMATKLGASVVSCRRGGASATFDQLNKYFSISNMPIVSSQYWNQVHGFTPEDVMKDEEGLQTMRTLGENMAWLLKCISAGKKAGIKEPQYEETIMTNFIK, MGSDKIHHHHHHMKVRIRDFIETTEGLYFAVNTYAHPKNKFFAFLRYVPYEFVDFKIEDNNIREINGRKYIKMAESKIAYKFLEEKFSKYLYYDETINVLMHAIPKEDVKRILRPKERLNEIINEENNLNELEEKCRKLALILEDYGVPIKSMGVSGSLLLKLNNKNSDIDFVIYGKDMHKKAREALKQAFEDNKLKPLSDDFWKIAYKKRIKDKTLTYEEFVFYEKRKYNRGIVDNTMFDLLFTREWDEITEKYGDKRYKNLGFAKIEGRVLNDDFAFDNPAVYKIECYNDEDIKEVVSFTHTYAGQCFNGEEIVARGKLEEVIDKSGERYKRIVVGTTREAFNEYIKIKR, MGSDKIHHHHHHMKVSDIMTPDPITYHVPSSINEVIKVLIKYNVTGVPITDQSGHYAGFVSRRDVFANPRETQTAMVMRRSKAVYEDDEVRTAALEMLAQKKRHLTVVDRDGHVKGILTPQNFMKTIKENYGNVKVKEVMKETSVPIWYKTPLPAILTVMNVSGIFSFPVIDDNGTFVGLLVDRDIFDRIDLKFDSILSEMGIADDEDPWSWTGLRNVFKYVVERADIKLPKISADEIMVKNPTVVYANDKLSTAAELMIKYNYNQLPVLDDSHGIYGMLYDIEMLGVFQ
